Laboratory results reported in the nanobody polyreactivity screen of Harvey et al. (2022).

assay: yeast display, Sf9 membrane polyspecificity reagent, FACS + sequencing; frameworks hold sequencing errors
Summary of the method: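 Nanobodies from a synthetic yeast display library (Saccharomyces cerevisiae BJ5465), induced 36–48 hours with galactose, were stained 1 hour at 4 °C with 10% biotinylated, detergent-solubilized Sf9 membrane reagent, enriched on streptavidin microbeads, then FACS-sorted. Anti-HA (expression) and streptavidin (reagent binding) fluorescence set low and high (top ~1%) gates. Polyreactivity labels come from the gate of origin. Genes were colony-PCR amplified, MiSeq 2 × 250 sequenced and filtered by CDR length.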

Row | Sequence | polyreactivity (PSR sort gate)
1 | QVQLVESGGGLVQAGGSIRLSCAASGRTFSAYAMGWYRQEPGKVRELVARITSVDSTNYADSVKGRFTISRDNAKNTVYLQMNSLKPEDTAVYYSNATFGYPLVDYDDYWGQGTQVTVSS | low polyreactivity
2 | QVQLVESGGGLVQAGGSLRLSCAASGRTFRWYTMGWYRQAPGKEREFVAAITWSGSSTNYADSVKGRFTISRDNEKNTVYLQMNSLKPEDTAFYYCAAENRRRRDDYWGQGTQVTVSS | high polyreactivity
3 | QVQLVESGARLVPAGGTLRLSFADYGFNFGQYAMAWYRQAPGKERELVAAISWSGGSTYYAESVKGRFTISRDNAKNTVYLQMNSLKPEDTAVYYCGEELGDYWGQGTQVTVSS | high polyreactivity
4 | QVQLVESGGGLVHAGGSLRLSCAAYGSIFYSYAMGWYRQAPGKERELVAAITSVGNTNYADSVKGRFTISRDNAKNTVYLQMNSLKPEDTAVYYYWGQGTQVTVSS | low polyreactivity
5 | QVQLVESGGGLVQAVGRLRLSCAASGITLSLYAMGWYRQATGKETELVAAISRGGGRTYYADSVKGRFTISRDNAKNTVYLQMNSLKPEDTAVYYCNKGRNPGPAYFASVDYWGQGTQVTVSS | high polyreactivity
6 | QVQLVESGGGLVQAGGSLRLSCAASGRIFKTYAMGWYRQAPGKERELVAAITWDVVRTYYADSVKGRFTISRDNAKNTVYLQMNSLKPEETAVYYCAAEGIRRSQRFNYWGQGTQVTVSS | high polyreactivity
7 | QVQLVESGGGLVQAGGSLRLSCAASGSIFDDYAMGWYRQAPGKERELVAAISSSGTSTYYADSVKGRFTISRDNAKNTVYLQMNSLKPEDTAVYYCAARSAILKSGYLMDYWGQGTQVTVSS | low polyreactivity
8 | QVQLVESGGGLVQAGCSLRLSCAASGIIFAWYAMGWYRQAPGKERELVAGISQSGGRTYYADSVKGRFTISRDNAKNTVYLQMNSLKPEDTAVYYCAAERPYSRVGYYYWGQGTQVTVSS | high polyreactivity
9 | QVQLVESGEGLVQAGGSLRLSCAASGRIFYSNDMGWYRQAPGKEREFVAAITDSGGSTYYADSVKGRFTISRDNAKNTVYLQMNSLKPEDTAGYYCAKRQYQSYIRGPYYYWGQGTQVNVSS | low polyreactivity
10 | QVQLVESGGGLVQAGGSLRLSCAASGSIFDLNAMGWYRQAPGKERELGAAISSGGGTYYADSVKGRFTISRDNAKNTVYLQMNSLKPEDTAVYYCNRVTSWTYNYWGQGTQVTVSS | high polyreactivity
11 | QVQLVESGGGLVQAGGSLRLSCAATGRTLKYNAMGRYRKAPGKERELVAAISYSGSSTYYADSVKGRFTISRDNAKNTVYLQMHSLKPEDTAVYYCNTARPTAAYDYWGQGTQVTVSS | low polyreactivity
12 | QVQLVESGGGLVQAGGRLRLSCAASGSIFGEYAMGWYRQAPGKERELVADITTGGNTNYADSVKGRFTISRDNAKNTVYLQMNSLKPEDTAVYYCNAYGNTYGYWWFGYWGQGTQVTVSS | low polyreactivity
13 | QVQLVESGGGLVQAGGSLRLSCAASGNIFYTNAMGWYRQAPGKERELVAAISRSGGRTYYADSVKGRFTISRDNAKNTVYLQMNSLKPEDTAVYYCAKQLYSPYKQRGYRLSPYEYWGQGTQVTVSS | low polyreactivity
14 | QVQLVESVGGLVKAGVSLRLSCAASGYIFPYYAMGWYRQAPGKERELVAAISRSGGGTYYADSVKGRFTISRYNAKNTVYFQMKSLKPVVTAVYYFNRRSGQVDVYDYWGQGTKVTVSS | low polyreactivity
15 | QVQLVESGGGLVQAGGSLRLSCAASGSIFYSNVMGWYRQAPGKERELVAAISKNGGSTYYADSVKGRFTISRDNAKNTVYLQMNSLKPEDTAVYYCAKYGYVGTTYGYWGQGTQVTVSS | high polyreactivity
16 | QVQLQESGSGLVQAGGSLRLSCAASGAIFPANLMGWYRQAPGKERELVAGISYGSITYCADSVKGRFNISRDNAKNTVYLQMNSLKPEDTAVYYCAVWRPGGDEYYYWGQGTQVTVSS | low polyreactivity
17 | QVQLVESGGGLVQAGGSLRLSCAASGSIFGANTMGWYRQAPGKERELVAGITSGARTYYADSVKGRFTISRDNAKNTVYLQMNSLKPEDTAVYYCAADTWKVFGVDYWGQGTQVTVSS | high polyreactivity
